Laboratory results: publication PMC11506057, “Identification of Podoplanin Aptamers by SELEX for Protein Detection and Inhibition of Platelet Aggregation Stimulated by C-Type Lectin-like Receptor 2”

T1: podoplanin (PDPN), recombinant PDPN-His-Fc (UniProt Q86YL7 23-131)
T1 sequence: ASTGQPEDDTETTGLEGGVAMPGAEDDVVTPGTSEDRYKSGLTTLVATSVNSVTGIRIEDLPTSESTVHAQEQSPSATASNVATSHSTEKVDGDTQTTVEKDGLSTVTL


Target: T1, podoplanin (PDPN), recombinant …
Assay: BLI; BLI and dot blot: binding buffer B, 1x PBS, 5 mM MgCl2, 0.1% BSA, 0.01% yeast tRNA (BLI baseline in buffer A: 1x PBS, 5 mM MgCl2, 2 mM CaCl2, 1 mg/mL BSA, 0.1 mg/mL salmon sperm DNA); temperature and pH not given; flow cytometry at 4 C
Conditions: protein: commercial, tags: His
[1] = chain copies: 2, label: biotin, antiparallel G-quadruplex or B-DNA (CD)
[2] = chain copies: 2, label: biotin, parallel G-quadruplex (CD), stem-loop predicted

Row | Binder | Kd [1] [nM] | Kd [2] [nM] | other results
1 | A1498 (structured_DNA) DNA: ATCCAGAGTGACGCAGCATGCAGGGTTTGGCTTCGGGCCTGGCGGAGAGAGCGTGAGGTGGACACGGTGGCTTAGT | 0.4 |  | 
2 | A289 (structured_DNA) DNA: ATCCAGAGTGACGCAGCACGGGTTTGGCGCCGGGCCTGGCGGGTGTAGCGTTTTTGGGTGGACACGGTGGCTTAGT | 0.5 |  | 
3 | A77 (structured_DNA) DNA: ATCCAGAGTGACGCAGCATGGGGGGAGAGTGTGGTCTGGCTTGGTGGGGTCTGGGGGCTGGACACGGTGGCTTAGT |  | 1.7 | 
4 | A6 (structured_DNA) DNA: ATCCAGAGTGACGCAGCACACCGAGGGGACTGCTCGGGATTGCGGATGAGGTAGCAAGTGGACACGGTGGCTTAGT |  | 0.2 | 
5 | A5 (structured_DNA) DNA: ATCCAGAGTGACGCAGCATGCCAAAGGGTCTGCTCGGGATTGCGGAGAGGGCTTGGGGTGGACACGGTGGCTTAGT |  | 0.2 | 
6 | A1 (structured_DNA) DNA: ATCCAGAGTGACGCAGCATCACTAGTGCGCCAGGGGGACTGCTCGGGATTGCGGATACTGGACACGGTGGCTTAGT |  |  | Kd (chain copies: 2, label: biotin (BLI, dot blot, Western blot), FAM (flow cytometry), parallel G-quadruplex (CD), stem-loop predicted): 1.3 nM
